From US20150322152A1 (INSTITUT PASTEUR, published 2015)

What was measured:
[1] = target: human FcγRI receptor (immobilized for SPR; form not stated) (human) (UniProt P12314); assay: SPR, IgG injected onto immobilized hFcγRI
[2] = target: human FcγRI receptor (immobilized for SPR; form not stated) (human) (UniProt P12314); assay: SPR, IgG injected onto immobilized hFcγRI; remark: listed apart in the source
[3] = target: human FcγRI receptor (immobilized for SPR; form not stated) (human) (UniProt P12314); assay: SPR on immobilized hFcγRI (summary sentence; the table prints 41)
[4] = target: T1, human FcγRI receptor (immobilized for SPR; form not stated) (human, UniProt P12314 16-288, limits assumed); assay: method not stated
T1 construct: also called hFcγRI; immobilized hFcγRI
T1 sequence (P12314 16-288 limits assumed): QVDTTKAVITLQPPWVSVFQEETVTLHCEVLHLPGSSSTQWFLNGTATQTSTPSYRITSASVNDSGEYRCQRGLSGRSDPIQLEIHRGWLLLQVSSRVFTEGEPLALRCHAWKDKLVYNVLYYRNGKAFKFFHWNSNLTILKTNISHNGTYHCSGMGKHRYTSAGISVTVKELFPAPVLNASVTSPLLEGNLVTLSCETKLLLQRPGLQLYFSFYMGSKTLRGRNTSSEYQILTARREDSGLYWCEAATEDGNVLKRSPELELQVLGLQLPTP

Chain of human FcγRI receptor (immobilized for SPR; form not stated) (human) (P12314 16-288 limits assumed): as above

Question: What does the source list for human IgG1 (antibody)?
Answer: Half life [1]: 216 s; Kd [1]: 41 nM; koff [1]: 0.0014 s⁻¹; kon [1]: 35000 M⁻¹ s⁻¹; Ka [2]: 2.5e+07 M⁻¹; Kd [2]: 40 nM; Kd [3]: 40 nM

Question: For mouse IgG2a (antibody), which Half life [1] is on record?
Answer: 271 s

Question: What about the Kd [1] of the same molecule?
Answer: 38 nM

Question: What about the koff [1] of the same molecule?
Answer: 0.0011 s⁻¹

Question: What about the kon [1] of the same molecule?
Answer: 36000 M⁻¹ s⁻¹

Question: And the Ka [2]?
Answer: 2.5e+07 M⁻¹

Question: And the Kd [2]?
Answer: 40 nM

B1: anti-hFcγRI.1 monoclonal antibody (antibody, mouse IgG2a, V domains shown)
VH: EVQLQESGPGLVQPSQSLSITCTVSGFSLTTYGVHWVRQSPGKGLEWLGMIWSGGSTDYNAAFISRLSISKDNSKSQVFFKMNSLQADDTAIYYCAREWFAYWGQGTSVTVSS
VL: ELVMTQSPASLSASVGETVTITCRASENIYSYLAWYQQKQGKSPQLLVYSAKTLAEGVPSRFSGSGSGTQFSLKINSLQPEDFGSYYCQHHYGTPYTFGGGTKMEIK
notes: Mouse IgG2a; IgG purified by Protein G from hybridoma supernatant; also called anti-hFcγR1.1; hFcγRI.1 mAb
Question: How did the Ka [4] turn out when B1 was run?
Answer: 1.5e+09 M⁻¹
